Laboratory results as given in the RNAGym collection of RNA variant scans (doi:10.1093/molbev/msab373).

B1: Azoarcus group I ribozyme (parent)
chain: GUGCCUUGCGCCGGGAAACCACGCAAGGGAUGGUGUCAAAUUCGGCGAAACCUAAGCGCCCGCCCGGGCGUAUGGCAACGCCGAGCCAAGCUUCGGCGCCUGCGCCGAUGAAGGUGUAGAGACUAGACGGCACCCACCUAAGGCAAACGCUAUGGUGAAGGCAUAGUCCAGGGAGUGGCGAAAGUCACACAAACCGG

Variants of: B1
Assay: reverse-splicing fitness (ratio to wild type); higher = more active; in vitro selection; Mg2+ level not given
How it was run: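 An in vitro group I ribozyme library with randomized positions was T7-transcribed and gel-purified. In triplicate, 10 pmol RNA in EPPS pH 7.5 was reacted with 50 pmoles of a 30-nt RNA substrate for 1 h at 37 °C across several added MgCl2 levels (1–48 mM), then stopped with EDTA. Products were reverse transcribed from a substrate-complementary primer, PCR-amplified and sequenced (HiSeq 4000). Fitness is a variant's read proportion after selection over that before, normalised to wild type.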

Variant	reverse-splicing fitness
GUGCCUUGCGCCGGGAAACCACGCAAGGGAUGGUGUCAAAUUCGGCGAAACCUAAGCGCCCGCCCGGGCGUAUGGCAACGCAGAGCCAAGCUUCGGCGCCUGCGCCGAUGCAGGUGUAGCGACUAGACGGCACCCACCUAAGGCCAACGGUAUGGUGAAGGCAUAGUCUAGGGAGUGGCGAAAGUCACACAAACCGG [C82A A111C A120C A145C C150G C169U]	0.00879
GUGCCUUGCGCCGGGAAACCACGCAAGGGAUGGUGUCAAAUUCGGCGAAACCUAAGCGCCCGCCCGGGCGUAUGGCAACGCAGAGCCAAGCUUCGGCGCCUGCGCCGAUGCAGGUGUAGCGACUAGACGGCACCCACCUAAGGCCAACGGUAUGGUGAAGGCAUAGUCAAGGGAGUGGCGAAAGUCACACAAACCGG [C82A A111C A120C A145C C150G C169A]	0.00854
GUGCCUUGCGCCGGGAAACCACGCAAGGGAUGGUGUCAAAUUCGGCGAAACCUAAGCGCCCGCCCGGGCGUAUGGCAACGCAGAGCCAAGCUUCGGCGCCUGCGCCGAUGAAGGUGUAGAGACUAGACGGCACCCACCUAAGGCAAACGCUAUGGUGAAGGCAUAGUCCAGGGAGUGGCGAAAGUCACACAAACCGG [C82A]	0.658
GUGCCUUGCGCCGGGAAACCACGCAAGGGAUGGUGUCAAAUUCGGCGAAACCUAAGCGCCCGCCCGGGCGUAUGGCAACGCAGAGCCAAGCUUCGGCGCCUGCGCCGAUGCAGGUGUAGCGACUAGACGGCACCCACCUAAGGCCAACGAUAUGGUGAAGGCAUAGUCAAGGGAGUGGCGAAAGUCACACAAACCGG [C82A A111C A120C A145C C150A C169A]	0.00755
GUGCCUUGCGCCGGGAAACCACGCAAGGGAUGGUGUCAAAUUCGGCGAAACCUAAGCGCCCGCCCGGGCGUAUGGCAACGCAGAGCCAAGCUUCGGCGCCUGCGCCGAUGCAGGUGUAGCGACUAGACGGCACCCACCUAAGGCCAACGAUAUGGUGAAGGCAUAGUCGAGGGAGUGGCGAAAGUCACACAAACCGG [C82A A111C A120C A145C C150A C169G]	0.00813
GUGCCUUGCGCCGGGAAACCACGCAAGGGAUGGUGUCAAAUUCGGCGAAACCUAAGCGCCCGCCCGGGCGUAUGGCAACGCAGAGCCAAGCUUCGGCGCCUGCGCCGAUGCAGGUGUAGCGACUAGACGGCACCCACCUAAGGCCAACGAUAUGGUGAAGGCAUAGUCUAGGGAGUGGCGAAAGUCACACAAACCGG [C82A A111C A120C A145C C150A C169U]	0.0105
GUGCCUUGCGCCGGGAAACCACGCAAGGGAUGGUGUCAAAUUCGGCGAAACCUAAGCGCCCGCCCGGGCGUAUGGCAACGCAGAGCCAAGCUUCGGCGCCUGCGCCGAUGCAGGUGUAGCGACUAGACGGCACCCACCUAAGGCCAACGAUAUGGUGAAGGCAUAGUCGAGGGAGAGGCGAAAGUCACACAAACCGG [C82A A111C A120C A145C C150A C169G U176A]	0.0296
GUGCCUUGCGCCGGGAAACCACGCAAGGGAUGGUGUCAAAUUCGGCGAAACCUAAGCGCCCGCCCGGGCGUAUGGCAACGCAGAGCCAAGCUUCGGCGCCUGCGCCGAUGCAGGUGUAGCGACUAGACGGCACCCACCUAAGGCCAACGAUAUGGUGAAGGCAUAGUCGAGGGAGCGGCGAAAGUCACACAAACCGG [C82A A111C A120C A145C C150A C169G U176C]	0.024
GUGCCUUGCGCCGGGAAACCACGCAAGGGAUGGUGUCAAAUUCGGCGAAACCUAAGCGCCCGCCCGGGCGUAUGGCAACGCAGAGCCAAGCUUCGGCGCCUGCGCCGAUGCAGGUGUAGCGACUAGACGGCACCCACCUAAGGCCAACGAUAUGGUGAAGGCAUAGUCGAGGGAGGGGCGAAAGUCACACAAACCGG [C82A A111C A120C A145C C150A C169G U176G]	0.00757
GUGCCUUGCGCCGGGAAACCACGCAAGGGAUGGUGUCAAAUUCGGCGAAACCUAAGCGCCCGCCCGGGCGUAUGGCAACGCAGAGCCAAGCUUCGGCGCCUGCGCCGAUGCAGGUGUAGCGACUAGACGGCACCCACCUAAGGCCAACGAUAUGGUGAAGGCAUAGUCCAGGGAGUGGCGAAAGUCACACAAACCGG [C82A A111C A120C A145C C150A]	0.0107
GUGCCUUGCGCCGGGAAACCACGCAAGGGAUGGUGUCAAAUUCGGCGAAACCUAAGCGCCCGCCCGGGCGUAUGGCAACGCAGAGCCAAGCUUCGGCGCCUGCGCCGAUGCAGGUGUAGCGACUAGACGGCACCCACCUAAGGCCAACGGUAUGGUGAAGGCAUAGUCCAGGGAGUGGCGAAAGUCACACAAACCGG [C82A A111C A120C A145C C150G]	0.00873
GUGCCUUGCGCCGGGAAACCACGCAAGGGAUGGUGUCAAAUUCGGCGAAACCUAAGCGCCCGCCCGGGCGUAUGGCAACGCAGAGCCAAGCUUCGGCGCCUGCGCCGAUGCAGGUGUAGCGACUAGACGGCACCCACCUAAGGCAAACGCUAUGGUGAAGGCAUAGUCCAGGGAGUGGCGAAAGUCACACAAACCGG [C82A A111C A120C]	0.0246
GUGCCUUGCGCCGGGAAACCACGCAAGGGAUGGUGUCAAAUUCGGCGAAACCUAAGCGCCCGCCCGGGCGUAUGGCAACGCAGAGCCAAGCUUCGGCGCCUGCGCCGAUGCAGGUGUAGCGACUAGACGGCACCCACCUAAGGCCAACGGUAUGGUGAAGGCAUAGUCGAGGGAGAGGCGAAAGUCACACAAACCGG [C82A A111C A120C A145C C150G C169G U176A]	0.00867
GUGCCUUGCGCCGGGAAACCACGCAAGGGAUGGUGUCAAAUUCGGCGAAACCUAAGCGCCCGCCCGGGCGUAUGGCAACGCAGAGCCAAGCUUCGGCGCCUGCGCCGAUGCAGGUGUAGCGACUAGACGGCACCCACCUAAGGCCAACGGUAUGGUGAAGGCAUAGUCGAGGGAGGGGCGAAAGUCACACAAACCGG [C82A A111C A120C A145C C150G C169G U176G]	0.00702
GUGCCUUGCGCCGGGAAACCACGCAAGGGAUGGUGUCAAAUUCGGCGAAACCUAAGCGCCCGCCCGGGCGUAUGGCAACGCAGAGCCAAGCUUCGGCGCCUGCGCCGAUGCAGGUGUAGCGACUAGACGGCACCCACCUAAGGCCAACGGUAUGGUGAAGGCAUAGUCGAGGGAGCGGCGAAAGUCACACAAACCGG [C82A A111C A120C A145C C150G C169G U176C]	0.0101
